Measurements published in publication PMC9732821, “Neurotrophic Activity and Its Modulation by Zinc Ion of a Dimeric Peptide Mimicking the Brain-Derived Neurotrophic Factor N-Terminal Region” (ACS Chemical Neuroscience, 2022).

Columns and labels:
TrkB = conditions: synaptic cleft; cited from earlier work
From the text: BDNF is the predominant NT in the adult brain and is widely distributed in the cortical areas, visual cortex, and hippocampus.[3] Activation of TrkB by BDNF initiates downstream signaling cascades mediated by Ras/ERK, PI3K/Akt, and PLC-γ.[4] After its activation, the BDNF–TrkB complex undergoes endocytosis, recycling, or degradation and crucially takes the axonal transport route to sustain neuron survival and differentiation.[5] Furthermore, BDNF/TrkB signaling regulates dendritic branching, the density of spines, and spine morphological specializations, acting both as the mediator and modulat ... || The modulation of the BDNF–TrkB signaling axis has been recently postulated as a drug target for the treatment of neurological diseases, including nerve injury, neurodegenerative diseases, and neuropsychiatric disorders.[15],[16] Unfortunately, the therapeutic use of BDNF, as that of other NTs, is challenging due to the uncontrolled side effects as well as their low bioavailability.[17] To overcome such limitations, the use of peptide fragments that can mimic specific domains of the NTs has been explored in the last few years.[18] The most investigated BDNF structural elements have been so far ...

[1] = biological target: TrkB receptor, endogenous in differentiated SH-SY5Y cells (human (endogenous in SH-SY5Y)) (UniProt Q16620); assay: immunostaining of cells or tissue; non-permeabilizing immunofluorescence of membrane-bound BDNF on differentiated SH-SY5Y cells; 1 h treatment with BDNF 150 ng/mL, d-bdnf 10 μM, or both
Sequence of UniProt Q16620 (Q16620 32-822): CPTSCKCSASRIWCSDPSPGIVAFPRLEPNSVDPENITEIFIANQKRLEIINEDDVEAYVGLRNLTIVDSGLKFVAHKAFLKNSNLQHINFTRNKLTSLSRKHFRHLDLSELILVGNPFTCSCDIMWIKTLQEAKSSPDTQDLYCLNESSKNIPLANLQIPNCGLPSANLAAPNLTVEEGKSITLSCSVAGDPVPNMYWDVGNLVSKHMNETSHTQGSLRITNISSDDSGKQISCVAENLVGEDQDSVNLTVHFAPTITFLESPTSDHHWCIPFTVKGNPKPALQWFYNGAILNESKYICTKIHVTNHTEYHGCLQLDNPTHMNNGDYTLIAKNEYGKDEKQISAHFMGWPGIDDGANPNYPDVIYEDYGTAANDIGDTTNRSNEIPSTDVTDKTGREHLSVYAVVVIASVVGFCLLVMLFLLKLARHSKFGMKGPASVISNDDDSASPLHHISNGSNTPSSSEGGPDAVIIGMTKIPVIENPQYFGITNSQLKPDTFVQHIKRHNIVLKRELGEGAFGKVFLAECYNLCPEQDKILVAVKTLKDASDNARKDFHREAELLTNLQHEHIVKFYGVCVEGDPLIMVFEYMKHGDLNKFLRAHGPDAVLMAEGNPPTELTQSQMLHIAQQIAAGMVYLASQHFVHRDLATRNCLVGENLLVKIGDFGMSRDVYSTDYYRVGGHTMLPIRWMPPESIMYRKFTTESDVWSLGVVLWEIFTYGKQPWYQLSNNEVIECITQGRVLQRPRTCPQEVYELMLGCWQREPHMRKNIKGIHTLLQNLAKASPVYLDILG

[2] = biological target: TrkB receptor, endogenous in differentiated SH-SY5Y cells (human (endogenous in SH-SY5Y)) (UniProt Q16620)

| Molecule | TrkB activation (TrkB) | increase of the fluorescent signal of membrane-bound BDNF on the cells [1] [%] | EC50 of ERK phosphorylation, dose-response in differentiated SH-SY5Y cells (referred to the monomer form) [2] [nM] | maximal effect (Emax) of ERK phosphorylation, dose-response in differentiated SH-SY5Y cells [2] |
| --- | --- | --- | --- | --- |
| [Zn+2] [zinc] | prompt post-synaptic, BDNF-independent TrkB activation |  |  |  |
| recombinant human mature BDNF (hBDNF) (ligand) |  | 40 | 0.69 | 237 |
